Results reported in paper PMC2955668.

How the values were obtained:
[1] = biological target: SIV_(MAC239)-HFNef (SIVmac239); experiment: co-IP; membrane-associated protein fraction of co-transfected 293T cells, solubilised in Buffer B plus 0.5% IGEPAL CA-630; anti-HA monoclonal antibody precipitates the HF-tagged Nef, untagged Nef detected by Western blot; fractional dimerization (FD) estimated from band densities assuming strict dimers and a binomial distribution
NA7-HFNef (HIV-1 (NA7)) [2] = experiment: as above
SF2-HFNef (HIV-1 (SF2)) [3] = biological target: SF2-HFNef (HIV-1 (SF2)) (UniProt P03407); experiment: as above
Sequence of UniProt P03407 (P03407 whole entry): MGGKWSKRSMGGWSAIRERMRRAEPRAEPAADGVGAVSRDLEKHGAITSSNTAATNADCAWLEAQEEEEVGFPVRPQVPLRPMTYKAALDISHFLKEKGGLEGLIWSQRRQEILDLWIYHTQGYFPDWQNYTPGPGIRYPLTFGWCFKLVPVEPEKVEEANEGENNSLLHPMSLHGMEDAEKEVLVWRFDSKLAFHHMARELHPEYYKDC

NA7-HFNef (HIV-1 (NA7)) [4] = experiment: co-IP; cytosolic (soluble, high speed supernatant) fraction of co-transfected 293T cells in Buffer B; anti-HA monoclonal antibody precipitates the HF-tagged Nef, untagged Nef detected by Western blot; FD estimated from band densities
SF2-HFNef (HIV-1 (SF2)) [5] = biological target: SF2-HFNef (HIV-1 (SF2)) (UniProt P03407); experiment: as above

Substance	fractional dimerization (FD) [1]	fractional dimerization (FD) (NA7-HFNef (HIV-1 (NA7)) [2])	fractional dimerization (FD) (SF2-HFNef (HIV-1 (SF2)) [3])	fractional dimerization (FD) (NA7-HFNef (HIV-1 (NA7)) [4])	fractional dimerization (FD) (SF2-HFNef (HIV-1 (SF2)) [5])
SIV_(MAC239)Nef (natural protein)	0.37				
NA7Nef (natural protein)		0.52	0.48	0.35	0.23
